Measured values taken from patent US20260001928A1 (CORTERIA PHARMACEUTICALS, priority 2022, published 2026).
*1 amine or outer side, *2 acyl side, *3 side chain or, on linkers, in order; H or OH if unused. Where no end group is shown, it is not given here. Side-chain parts run from the residue outwards. [ ]: non-standard residue; d: D form. The star is where a group is joined. C18 diacid = O=C(O)CCCCCCCCCCCCCCCCC(=O)*; C16 diacid = O=C(O)CCCCCCCCCCCCCCC(=O)*; γGlu = O=C(O)[C@H](CCC(=O)[*:2])N[*:1]; AEEA = NCCOCCOCC(=O)O

T1: CRF1R receptor (UniProt P34998 24-415, limits assumed)
T1 sequence (looked up): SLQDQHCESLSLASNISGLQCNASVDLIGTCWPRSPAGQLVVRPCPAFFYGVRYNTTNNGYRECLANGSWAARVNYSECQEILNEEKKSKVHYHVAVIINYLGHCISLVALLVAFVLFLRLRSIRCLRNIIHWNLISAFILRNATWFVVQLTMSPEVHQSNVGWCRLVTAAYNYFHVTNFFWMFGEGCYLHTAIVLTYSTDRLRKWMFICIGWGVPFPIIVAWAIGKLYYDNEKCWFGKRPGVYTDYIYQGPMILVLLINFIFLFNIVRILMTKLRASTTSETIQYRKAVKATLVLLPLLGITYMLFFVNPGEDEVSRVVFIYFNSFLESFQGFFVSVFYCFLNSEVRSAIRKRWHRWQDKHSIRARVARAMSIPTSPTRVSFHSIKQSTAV

B1: SEQ ID NO 150 (peptide)
peptide: IVLSLD[dV]PIKLK([AEEA-AEEA-γGlu-C18 diacid])QILLKQERQKKQREQAEKNKQILEQV-NH2
modifications: N-terminus assumed
SMILES: CC[C@H](C)[C@H](N)C(=O)N[C@H](C(=O)N[C@@H](CC(C)C)C(=O)N[C@@H](CO)C(=O)N[C@@H](CC(C)C)C(=O)N[C@@H](CC(=O)O)C(=O)N[C@@H](C(=O)N1CCC[C@H]1C(=O)N[C@H](C(=O)N[C@@H](CCCCN)C(=O)N[C@@H](CC(C)C)C(=O)N[C@@H](CCCCNC(=O)COCCOCCNC(=O)COCCOCCNC(=O)CC[C@H](NC(=O)CCCCCCCCCCCCCCCCC(=O)O)C(=O)O)C(=O)N[C@@H](CCC(N)=O)C(=O)N[C@H](C(=O)N[C@@H](CC(C)C)C(=O)N[C@@H](CC(C)C)C(=O)N[C@@H](CCCCN)C(=O)N[C@@H](CCC(N)=O)C(=O)N[C@@H](CCC(=O)O)C(=O)N[C@@H](CCCNC(=N)N)C(=O)N[C@@H](CCC(N)=O)C(=O)N[C@@H](CCCCN)C(=O)N[C@@H](CCCCN)C(=O)N[C@@H](CCC(N)=O)C(=O)N[C@@H](CCCNC(=N)N)C(=O)N[C@@H](CCC(=O)O)C(=O)N[C@@H](CCC(N)=O)C(=O)N[C@@H](C)C(=O)N[C@@H](CCC(=O)O)C(=O)N[C@@H](CCCCN)C(=O)N[C@@H](CC(N)=O)C(=O)N[C@@H](CCCCN)C(=O)N[C@@H](CCC(N)=O)C(=O)N[C@H](C(=O)N[C@@H](CC(C)C)C(=O)N[C@@H](CCC(=O)O)C(=O)N[C@@H](CCC(N)=O)C(=O)N[C@H](C(N)=O)C(C)C)[C@@H](C)CC)[C@@H](C)CC)[C@@H](C)CC)C(C)C)C(C)C
B2: SEQ ID NO 151 (peptide)
peptide: IVLSLD[dV]PIKLK([γGlu-C16 diacid])QILLKQERQKKQREQAEKNKQILEQV-NH2
modifications: N-terminus assumed
SMILES: CC[C@H](C)[C@H](N)C(=O)N[C@H](C(=O)N[C@@H](CC(C)C)C(=O)N[C@@H](CO)C(=O)N[C@@H](CC(C)C)C(=O)N[C@@H](CC(=O)O)C(=O)N[C@@H](C(=O)N1CCC[C@H]1C(=O)N[C@H](C(=O)N[C@@H](CCCCN)C(=O)N[C@@H](CC(C)C)C(=O)N[C@@H](CCCCNC(=O)CC[C@H](NC(=O)CCCCCCCCCCCCCCC(=O)O)C(=O)O)C(=O)N[C@@H](CCC(N)=O)C(=O)N[C@H](C(=O)N[C@@H](CC(C)C)C(=O)N[C@@H](CC(C)C)C(=O)N[C@@H](CCCCN)C(=O)N[C@@H](CCC(N)=O)C(=O)N[C@@H](CCC(=O)O)C(=O)N[C@@H](CCCNC(=N)N)C(=O)N[C@@H](CCC(N)=O)C(=O)N[C@@H](CCCCN)C(=O)N[C@@H](CCCCN)C(=O)N[C@@H](CCC(N)=O)C(=O)N[C@@H](CCCNC(=N)N)C(=O)N[C@@H](CCC(=O)O)C(=O)N[C@@H](CCC(N)=O)C(=O)N[C@@H](C)C(=O)N[C@@H](CCC(=O)O)C(=O)N[C@@H](CCCCN)C(=O)N[C@@H](CC(N)=O)C(=O)N[C@@H](CCCCN)C(=O)N[C@@H](CCC(N)=O)C(=O)N[C@H](C(=O)N[C@@H](CC(C)C)C(=O)N[C@@H](CCC(=O)O)C(=O)N[C@@H](CCC(N)=O)C(=O)N[C@H](C(N)=O)C(C)C)[C@@H](C)CC)[C@@H](C)CC)[C@@H](C)CC)C(C)C)C(C)C
B3: SEQ ID NO 147 (peptide)
peptide: IVLSLD[dV]PIKLK([γGlu-γGlu-C16 diacid])QILLKQERQKKQREQAEKNKQILEQV-NH2
modifications: N-terminus assumed
SMILES: CC[C@H](C)[C@H](N)C(=O)N[C@H](C(=O)N[C@@H](CC(C)C)C(=O)N[C@@H](CO)C(=O)N[C@@H](CC(C)C)C(=O)N[C@@H](CC(=O)O)C(=O)N[C@@H](C(=O)N1CCC[C@H]1C(=O)N[C@H](C(=O)N[C@@H](CCCCN)C(=O)N[C@@H](CC(C)C)C(=O)N[C@@H](CCCCNC(=O)CC[C@H](NC(=O)CC[C@H](NC(=O)CCCCCCCCCCCCCCC(=O)O)C(=O)O)C(=O)O)C(=O)N[C@@H](CCC(N)=O)C(=O)N[C@H](C(=O)N[C@@H](CC(C)C)C(=O)N[C@@H](CC(C)C)C(=O)N[C@@H](CCCCN)C(=O)N[C@@H](CCC(N)=O)C(=O)N[C@@H](CCC(=O)O)C(=O)N[C@@H](CCCNC(=N)N)C(=O)N[C@@H](CCC(N)=O)C(=O)N[C@@H](CCCCN)C(=O)N[C@@H](CCCCN)C(=O)N[C@@H](CCC(N)=O)C(=O)N[C@@H](CCCNC(=N)N)C(=O)N[C@@H](CCC(=O)O)C(=O)N[C@@H](CCC(N)=O)C(=O)N[C@@H](C)C(=O)N[C@@H](CCC(=O)O)C(=O)N[C@@H](CCCCN)C(=O)N[C@@H](CC(N)=O)C(=O)N[C@@H](CCCCN)C(=O)N[C@@H](CCC(N)=O)C(=O)N[C@H](C(=O)N[C@@H](CC(C)C)C(=O)N[C@@H](CCC(=O)O)C(=O)N[C@@H](CCC(N)=O)C(=O)N[C@H](C(N)=O)C(C)C)[C@@H](C)CC)[C@@H](C)CC)[C@@H](C)CC)C(C)C)C(C)C
B4: SEQ ID NO 13 (peptide)
peptide: IVLSLD[dV]PIKLK([γGlu-C16 diacid])QILLKQERQKKQREQAEKNVQILEQV-NH2
modifications: N-terminus assumed
SMILES: CC[C@H](C)[C@H](N)C(=O)N[C@H](C(=O)N[C@@H](CC(C)C)C(=O)N[C@@H](CO)C(=O)N[C@@H](CC(C)C)C(=O)N[C@@H](CC(=O)O)C(=O)N[C@@H](C(=O)N1CCC[C@H]1C(=O)N[C@H](C(=O)N[C@@H](CCCCN)C(=O)N[C@@H](CC(C)C)C(=O)N[C@@H](CCCCNC(=O)CC[C@H](NC(=O)CCCCCCCCCCCCCCC(=O)O)C(=O)O)C(=O)N[C@@H](CCC(N)=O)C(=O)N[C@H](C(=O)N[C@@H](CC(C)C)C(=O)N[C@@H](CC(C)C)C(=O)N[C@@H](CCCCN)C(=O)N[C@@H](CCC(N)=O)C(=O)N[C@@H](CCC(=O)O)C(=O)N[C@@H](CCCNC(=N)N)C(=O)N[C@@H](CCC(N)=O)C(=O)N[C@@H](CCCCN)C(=O)N[C@@H](CCCCN)C(=O)N[C@@H](CCC(N)=O)C(=O)N[C@@H](CCCNC(=N)N)C(=O)N[C@@H](CCC(=O)O)C(=O)N[C@@H](CCC(N)=O)C(=O)N[C@@H](C)C(=O)N[C@@H](CCC(=O)O)C(=O)N[C@@H](CCCCN)C(=O)N[C@@H](CC(N)=O)C(=O)N[C@H](C(=O)N[C@@H](CCC(N)=O)C(=O)N[C@H](C(=O)N[C@@H](CC(C)C)C(=O)N[C@@H](CCC(=O)O)C(=O)N[C@@H](CCC(N)=O)C(=O)N[C@H](C(N)=O)C(C)C)[C@@H](C)CC)C(C)C)[C@@H](C)CC)[C@@H](C)CC)C(C)C)C(C)C
B5: SEQ ID NO 14 (peptide)
peptide: IVLSLD[dV]PIKLK([γGlu-C16 diacid])QILLKQERQKKQREQAEKNTQILEQV-NH2
modifications: N-terminus assumed
SMILES: CC[C@H](C)[C@H](N)C(=O)N[C@H](C(=O)N[C@@H](CC(C)C)C(=O)N[C@@H](CO)C(=O)N[C@@H](CC(C)C)C(=O)N[C@@H](CC(=O)O)C(=O)N[C@@H](C(=O)N1CCC[C@H]1C(=O)N[C@H](C(=O)N[C@@H](CCCCN)C(=O)N[C@@H](CC(C)C)C(=O)N[C@@H](CCCCNC(=O)CC[C@H](NC(=O)CCCCCCCCCCCCCCC(=O)O)C(=O)O)C(=O)N[C@@H](CCC(N)=O)C(=O)N[C@H](C(=O)N[C@@H](CC(C)C)C(=O)N[C@@H](CC(C)C)C(=O)N[C@@H](CCCCN)C(=O)N[C@@H](CCC(N)=O)C(=O)N[C@@H](CCC(=O)O)C(=O)N[C@@H](CCCNC(=N)N)C(=O)N[C@@H](CCC(N)=O)C(=O)N[C@@H](CCCCN)C(=O)N[C@@H](CCCCN)C(=O)N[C@@H](CCC(N)=O)C(=O)N[C@@H](CCCNC(=N)N)C(=O)N[C@@H](CCC(=O)O)C(=O)N[C@@H](CCC(N)=O)C(=O)N[C@@H](C)C(=O)N[C@@H](CCC(=O)O)C(=O)N[C@@H](CCCCN)C(=O)N[C@@H](CC(N)=O)C(=O)N[C@H](C(=O)N[C@@H](CCC(N)=O)C(=O)N[C@H](C(=O)N[C@@H](CC(C)C)C(=O)N[C@@H](CCC(=O)O)C(=O)N[C@@H](CCC(N)=O)C(=O)N[C@H](C(N)=O)C(C)C)[C@@H](C)CC)[C@@H](C)O)[C@@H](C)CC)[C@@H](C)CC)C(C)C)C(C)C
B6: SEQ ID NO 34 (peptide)
peptide: VLSLD[dV]PIKLK([γGlu-C16 diacid])KILLEQEKQKKQREQAETNKQILAQV-NH2
modifications: N-terminus assumed
SMILES: CC[C@H](C)[C@H](NC(=O)[C@H](CCC(N)=O)NC(=O)[C@H](CCCCN)NC(=O)[C@H](CC(N)=O)NC(=O)[C@@H](NC(=O)[C@H](CCC(=O)O)NC(=O)[C@H](C)NC(=O)[C@H](CCC(N)=O)NC(=O)[C@H](CCC(=O)O)NC(=O)[C@H](CCCNC(=N)N)NC(=O)[C@H](CCC(N)=O)NC(=O)[C@H](CCCCN)NC(=O)[C@H](CCCCN)NC(=O)[C@H](CCC(N)=O)NC(=O)[C@H](CCCCN)NC(=O)[C@H](CCC(=O)O)NC(=O)[C@H](CCC(N)=O)NC(=O)[C@H](CCC(=O)O)NC(=O)[C@H](CC(C)C)NC(=O)[C@H](CC(C)C)NC(=O)[C@@H](NC(=O)[C@H](CCCCN)NC(=O)[C@H](CCCCNC(=O)CC[C@H](NC(=O)CCCCCCCCCCCCCCC(=O)O)C(=O)O)NC(=O)[C@H](CC(C)C)NC(=O)[C@H](CCCCN)NC(=O)[C@@H](NC(=O)[C@@H]1CCCN1C(=O)[C@H](NC(=O)[C@H](CC(=O)O)NC(=O)[C@H](CC(C)C)NC(=O)[C@H](CO)NC(=O)[C@H](CC(C)C)NC(=O)[C@@H](N)C(C)C)C(C)C)[C@@H](C)CC)[C@@H](C)CC)[C@@H](C)O)C(=O)N[C@@H](CC(C)C)C(=O)N[C@@H](C)C(=O)N[C@@H](CCC(N)=O)C(=O)N[C@H](C(N)=O)C(C)C

The binders below were run against T1, CRF1R receptor (assay: cell-based or functional assay).
In the case of B1, the “Emax (% I)” value is reported as 38%.
In the case of B2, the “EC50” value is reported as 25.3 nM and the “Emax (% I)” value is reported as 53%.
With B3 the “EC50” value was 100 nM and the “Emax (% I)” value was 22%.
For B4, the “EC50” value was greater than 250 nM and the “Emax (% I)” value was 24%.
For B5, the “EC50” value was greater than 250 nM and the “Emax (% I)” value was 24%.
In the case of B6, the “Emax (% I)” value is reported as 0%.
